Drawing on patent US20190330346A1 (REMD BIOTHERAPEUTICS, published 2019), this text covers Kd, koff and kon for 16 molecules.

The target of assay [1] is T1, His-tagged human PD-1 protein (human, UniProt Q15116 25-170, limits assumed).
T1 construct: SPR analyte; also called his-tagged antigen PD-1; not shown: His tag
As to the kind of experiment: SPR; Fab-SASA captured on immobilised BSA, his-tagged PD-1 as analyte. On the procedure:
For affinity ranking, BSA was immobilized onto the sensor chip using amine coupling method. The selected Fab-SASA secreted to the culture medium was injected and captured by BSA through the tight binding between BSA and SASA (capture phase). After equilibration, his-tagged antigen PD-1 was injected for 300 seconds (association phase) followed by the injection of running buffer for 900 seconds (dissociation phase). The surface was regenerated before the injection of another three Fab-SASA clones. The process was repeated until all selected Fab-SASA proteins were analyzed. Responses of reference flow cell were subtracted from those of Fab-SASA flow cells during each cycle. The antibodies were ranked by their dissociation rate constants (off-rates, […]). […]
Background: In SPR one partner is held on a chip, and binding of the other changes the refractive index at the surface.

A further assay addresses T2, human PD-1 (human, UniProt Q15116 25-167).
T2 construct: The immunogen was PD1/Fc (Leu25-Gln167 fused to human IgG1 Pro100-Lys330); also called huPD-1; hPD-1
Put plainly: SPR, multiple-cycle, crude Fab from E. coli; antigen form not stated. From the text: A homology model of mouse anti-PD1 Fv was built wherein putative back mutation sites (i.e., buried residues of the frameworks that are different in the mouse and human acceptor sequences) were identified. There were a total of 14 putative back mutation sites. A variant humanized Fab comprising all 14 of the putative back mutation sites of PD1-grafted Ab mutated back to their mouse counterparts (hereinafter identified as “PD1-BM Ab”) comprising the heavy chain variable region sequence set forth in SEQ ID NO: 38 and the light chain variable region sequence set forth in SEQ ID NO: 39, was synthesized. In addition, 14 variants of PD1-BM Ab (hereinafter identified as Fabs 1-14), each having at least one of the putative 14 back mutation sites in PD1-BM Ab mutated back to the human counterpart, were synthesized. These constructs were used to transform E. coli TG1 strain. Single colonies were pick for each individual construct and grown in E. coli medium. Crude chimeric and humanized Fabs were collected and subjected to multiple-cycle affinity estimation by Surface Plasmon Resonance (SPR).

T2 sequence (Q15116 25-167 limits assumed): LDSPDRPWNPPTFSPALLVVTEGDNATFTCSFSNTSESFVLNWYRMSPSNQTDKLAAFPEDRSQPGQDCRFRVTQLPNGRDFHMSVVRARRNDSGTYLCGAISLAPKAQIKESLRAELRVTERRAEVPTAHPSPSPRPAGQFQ
T1 sequence (Q15116 25-170 limits assumed): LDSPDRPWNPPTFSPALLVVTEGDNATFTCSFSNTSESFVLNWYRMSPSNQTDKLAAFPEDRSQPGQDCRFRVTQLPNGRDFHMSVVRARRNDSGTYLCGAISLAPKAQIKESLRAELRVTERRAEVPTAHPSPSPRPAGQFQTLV

B1: AS05616 (Fab, V domains shown)
VH: EVQLVESGGGLVQPGGSLRLSCAASGFVFSRYDMAWVRQTPGKGLEWVSFISGGGSNTYYPDTVKGRFTISRDNSKNTLYLQMNSLRAEDTAVYYCISPYYYAMEYWGQGTTVTVSS
VL: DIQMTQSPSSISTSVGDRVTITCKASQDVDTAVAWYQQKPGKSPKLLIHWASTRHTGVPSRFSGSGSGTDFTLTISSLQPEDFADYFCQQYSTFPWTFGGGTKVEIK
notes: Humanized Fab-SASA clone from the phage library
In assay [1], B1 yielded a Kd of 0.311 nM, a koff of 0.000105 s⁻¹ and a kon of 336000 M⁻¹ s⁻¹.

B2: Fab 13 (Fab, V domains shown)
VH: EVQLVESGGGLVQPGGSLRLSCAASGFVFSRYDMAWVRQTPGKGLEWVAFISGGGSNTYYPDTVKGRFTISRDNSKNTLYLQMNSLRAEDTAVYYCISPYYYAMEYWGQGTTVTVSS
VL: DIQMTQSPSSISTSVGDRVTITCKASQDVDTAVAWYQQKPGKSPKLLIHWASTRHTGVPSRFSGSGSGTDFTLTLSSVQPEDLADYYCQQYSTFPWTFGGGTKLEIK
notes: Crude Fab from E. coli; also called PD1-BM VL-F87Y
As for B2, in the assay with human PD-1, the Kd was 0.29 nM, the koff was 0.0001 s⁻¹ and the kon came to 350000 M⁻¹ s⁻¹.

B3: Fab 10 (Fab, V domains shown)
VH: EVQLVESGGGLVQPGGSLRLSCAASGFVFSRYDMAWVRQTPGKGLEWVAFISGGGSNTYYPDTVKGRFTISRDNSKNTLYLQMNSLRAEDTAVYYCISPYYYAMEYWGQGTTVTVSS
VL: DIQMTQSPSSISTSVGDRVTITCKASQDVDTAVAWYQQKPGKSPKLLIHWASTRHTGVPSRFSGSGSGTDFTLTLSSLQPEDLADYFCQQYSTFPWTFGGGTKLEIK
notes: Crude Fab from E. coli; also called PD1-BM VL-V78L
With B3, in the assay with human PD-1, the Kd was 0.29 nM, the koff was found to be 9.1e-05 s⁻¹ and the kon was found to be 320000 M⁻¹ s⁻¹.

B4: AS05617 (Fab) (Fab, V domains shown)
VH: EVQLVESGGGLVQPGGSLRLSCAASGFVFSRYDMAWVRQTPGKGLEWVSFISGGGSNTYYPDTVKGRFTISRDNSKNTLYLQMNSLRAEDTAVYYCISPYYYAMEYWGQGTTVTVSS
VL: DIQMTQSPSSISTSVGDRVTITCKASQDVDTAVAWYQQKPGKSPKLLIYWASTRHTGVPSRFSGSGSGTDFTLTISSLQPEDFADYFCQQYSTFPWTFGGGTKVEIK
notes: as for B1
Take B4: in assay [1], the Kd was 0.0854 nM, the koff amounted to 3e-05 s⁻¹ and the kon amounted to 351000 M⁻¹ s⁻¹.

B5: Fab 8 (Fab, V domains shown)
VH: EVQLVESGGGLVQPGGSLRLSCAASGFVFSRYDMAWVRQTPGKGLEWVAFISGGGSNTYYPDTVKGRFTISRDNSKNTLYLQMNSLRAEDTAVYYCISPYYYAMEYWGQGTTVTVSS
VL: DIQMTQSPSSISTSVGDRVTITCKASQDVDTAVAWYQQKPGKSPKLLIYWASTRHTGVPSRFSGSGSGTDFTLTLSSVQPEDLADYFCQQYSTFPWTFGGGTKLEIK
notes: Crude Fab from E. coli; also called PD1-BM VL-H49Y
On to B5, for which, in the assay with human PD-1, the Kd came to 0.57 nM, the koff came out at 0.00019 s⁻¹ and the kon was found to be 340000 M⁻¹ s⁻¹.

B6: Fab 3 (Fab, V domains shown)
VH: EVQLVESGGGLVQPGGSLRLSCAASGFVFSRYDMAWVRQTPGKGLEWVAFISGGGSNTYYPDTVKGRFTISRDNSKNTLYLQMNSLRAEDTAVYYCASPYYYAMEYWGQGTTVTVSS
VL: DIQMTQSPSSISTSVGDRVTITCKASQDVDTAVAWYQQKPGKSPKLLIHWASTRHTGVPSRFSGSGSGTDFTLTLSSVQPEDLADYFCQQYSTFPWTFGGGTKLEIK
notes: Crude Fab from E. coli; also called PD1-BM VH-I97A
As for B6, in the assay with human PD-1, the Kd came to 1.1 nM, the koff worked out at 0.00035 s⁻¹ and the kon was determined as 320000 M⁻¹ s⁻¹.

B7: AS05614 (Fab, V domains shown)
VH: EVQLVESGGGLVQPGGSLRLSCAASGFVFSRYDMAWVRQTPGKGLEWVSFISGGGSNTYYPDTVKGRFTISRDNSKNTLYLQMNSLRAEDTAVYYCISPYYYAMEYWGQGTTVTVSS
VL: DIQMTQSPSSISTSVGDRVTITCKASQDVDTAVAWYQQKPGKSPKLLIHWASTRHTGVPSRFSGSGSGTDFTLTLSSVQPEDFATYFCQQYSTFPWTFGGGTKVEIK
notes: as for B1
B7: in assay [1], the Kd was determined as 0.37 nM, the koff was determined as 0.000134 s⁻¹ and the kon came to 363000 M⁻¹ s⁻¹.

B8: Fab 6 (Fab, V domains shown)
VH: EVQLVESGGGLVQPGGSLRLSCAASGFVFSRYDMAWVRQTPGKGLEWVAFISGGGSNTYYPDTVKGRFTISRDNSKNTLYLQMNSLRAEDTAVYYCISPYYYAMEYWGQGTTVTVSS
VL: DIQMTQSPSSISASVGDRVTITCKASQDVDTAVAWYQQKPGKSPKLLIHWASTRHTGVPSRFSGSGSGTDFTLTLSSVQPEDLADYFCQQYSTFPWTFGGGTKLEIK
notes: Crude Fab from E. coli; also called PD1-BM VL-T13A
In the assay with human PD-1, B8 registered a Kd of 0.25 nM, a koff of 9.6e-05 s⁻¹ and a kon of 380000 M⁻¹ s⁻¹.

B9: Fab 5 (Fab, V domains shown)
VH: EVQLVESGGGLVQPGGSLRLSCAASGFVFSRYDMAWVRQTPGKGLEWVAFISGGGSNTYYPDTVKGRFTISRDNSKNTLYLQMNSLRAEDTAVYYCISPYYYAMEYWGQGTTVTVSS
VL: DIQMTQSPSSVSTSVGDRVTITCKASQDVDTAVAWYQQKPGKSPKLLIHWASTRHTGVPSRFSGSGSGTDFTLTLSSVQPEDLADYFCQQYSTFPWTFGGGTKLEIK
notes: Crude Fab from E. coli; also called PD1-BM VL-I11V
As for B9, in the assay with human PD-1, the Kd is 0.34 nM, the off-rate constant (koff) was 0.00013 s⁻¹ and the kon was 370000 M⁻¹ s⁻¹.

B10: Fab 12 (Fab, V domains shown)
VH: EVQLVESGGGLVQPGGSLRLSCAASGFVFSRYDMAWVRQTPGKGLEWVAFISGGGSNTYYPDTVKGRFTISRDNSKNTLYLQMNSLRAEDTAVYYCISPYYYAMEYWGQGTTVTVSS
VL: DIQMTQSPSSISTSVGDRVTITCKASQDVDTAVAWYQQKPGKSPKLLIHWASTRHTGVPSRFSGSGSGTDFTLTLSSVQPEDLATYFCQQYSTFPWTFGGGTKLEIK
notes: Crude Fab from E. coli; also called PD1-BM VL-D85T
Take B10: in the assay with human PD-1, the Kd turned out to be 0.28 nM, the koff was 9.4e-05 s⁻¹ and the kon turned out to be 330000 M⁻¹ s⁻¹.

B11: Fab 11 (Fab, V domains shown)
VH: EVQLVESGGGLVQPGGSLRLSCAASGFVFSRYDMAWVRQTPGKGLEWVAFISGGGSNTYYPDTVKGRFTISRDNSKNTLYLQMNSLRAEDTAVYYCISPYYYAMEYWGQGTTVTVSS
VL: DIQMTQSPSSISTSVGDRVTITCKASQDVDTAVAWYQQKPGKSPKLLIHWASTRHTGVPSRFSGSGSGTDFTLTLSSVQPEDFADYFCQQYSTFPWTFGGGTKLEIK
notes: Crude Fab from E. coli; also called PD1-BM VL-L83F
With B11, in the assay with human PD-1, the affinity, expressed as Kd, was 0.72 nM; the koff is 0.00022 s⁻¹; the kon turned out to be 300000 M⁻¹ s⁻¹.

B12: Fab 14 (Fab, V domains shown)
VH: EVQLVESGGGLVQPGGSLRLSCAASGFVFSRYDMAWVRQTPGKGLEWVAFISGGGSNTYYPDTVKGRFTISRDNSKNTLYLQMNSLRAEDTAVYYCISPYYYAMEYWGQGTTVTVSS
VL: DIQMTQSPSSISTSVGDRVTITCKASQDVDTAVAWYQQKPGKSPKLLIHWASTRHTGVPSRFSGSGSGTDFTLTLSSVQPEDLADYFCQQYSTFPWTFGGGTKVEIK
notes: Crude Fab from E. coli; also called PD1-BM VL-L104V
In the assay with human PD-1, B12 gave a Kd of 0.68 nM, a koff of 0.0002 s⁻¹ and a kon of 300000 M⁻¹ s⁻¹.

B13: Fab 9 (Fab, V domains shown)
VH: EVQLVESGGGLVQPGGSLRLSCAASGFVFSRYDMAWVRQTPGKGLEWVAFISGGGSNTYYPDTVKGRFTISRDNSKNTLYLQMNSLRAEDTAVYYCISPYYYAMEYWGQGTTVTVSS
VL: DIQMTQSPSSISTSVGDRVTITCKASQDVDTAVAWYQQKPGKSPKLLIHWASTRHTGVPSRFSGSGSGTDFTLTISSVQPEDLADYFCQQYSTFPWTFGGGTKLEIK
notes: Crude Fab from E. coli; also called PD1-BM VL-L75I
With B13, in the assay with human PD-1, binding was put at a Kd of 0.24 nM, the koff was 8e-05 s⁻¹ and the kon was found to be 330000 M⁻¹ s⁻¹.

B14: Fab 7 (Fab, V domains shown)
VH: EVQLVESGGGLVQPGGSLRLSCAASGFVFSRYDMAWVRQTPGKGLEWVAFISGGGSNTYYPDTVKGRFTISRDNSKNTLYLQMNSLRAEDTAVYYCISPYYYAMEYWGQGTTVTVSS
VL: DIQMTQSPSSISTSVGDRVTITCKASQDVDTAVAWYQQKPGKAPKLLIHWASTRHTGVPSRFSGSGSGTDFTLTLSSVQPEDLADYFCQQYSTFPWTFGGGTKLEIK
notes: Crude Fab from E. coli; also called PD1-BM VL-S43A
In the assay with human PD-1, B14 came in with a Kd of 0.59 nM, an off-rate constant (koff) of 0.00016 s⁻¹ and a kon of 270000 M⁻¹ s⁻¹.

B15: Fab 1 (Fab, V domains shown)
VH: EVQLVESGGGLVQPGGSLRLSCAASGFVFSRYDMAWVRQAPGKGLEWVAFISGGGSNTYYPDTVKGRFTISRDNSKNTLYLQMNSLRAEDTAVYYCISPYYYAMEYWGQGTTVTVSS
VL: DIQMTQSPSSISTSVGDRVTITCKASQDVDTAVAWYQQKPGKSPKLLIHWASTRHTGVPSRFSGSGSGTDFTLTLSSVQPEDLADYFCQQYSTFPWTFGGGTKLEIK
notes: Crude Fab from E. coli; also called PD1-BM VH-T40A
For B15, in the assay with human PD-1, the Kd was 0.32 nM, the koff worked out at 9.8e-05 s⁻¹ and the kon came to 310000 M⁻¹ s⁻¹.

B16: chimeric Fab (Fab, V domains shown)
VH: EVQLVESGGDLVKPGGSLKLSCAASGFVFSRYDMAWVRQTPEKRLEWVAFISGGGSNTYYPDTVKGRFTISRDNAKNTLYLQMTSLKSEDTAVYYCISPYYYAMEYWGQGTSVTVSS
VL: DIVMTQSHKFISTSVGDRVSITCKASQDVDTAVAWYQQKPGQSPKLLIHWASTRHTGVPDRFTGGGSGTDFTLTLSNVQSEDLADYFCQQYSTFPWTFGGGTRLEIK
notes: Crude murine-human chimeric Fab from E. coli TG1, made with the HCVR and LCVR of PD1#3; Only the variable domains are tied to it
As to B16, in the assay with human PD-1, the Kd is 0.5 nM, the koff came out at 0.00015 s⁻¹ and the kon is 300000 M⁻¹ s⁻¹.

In general, Kd refers to the concentration at which binding is half-saturated. Read a low Kd as higher affinity. For orientation: koff means the rate constant with which the complex falls apart. Low values mean a long-lived complex, high ones a short-lived complex. Usually kon stands for the second-order rate constant of association. Low values mean slower complex formation, high ones faster complex formation.
